Laboratory results taken from patent US6083713.

Experiments:
[1] = biological target: βAPP-C100 binding site on NGF-treated PC12 cells; test: competition with 35S-βAPP-C100 for binding to NGF-treated PC12 cells
[2] = biological target: βAPP-C100 binding site on NGF-treated PC12 cells; test: saturation binding of 35S-βAPP-C100 to NGF-treated PC12 cells, filtration, 4° C.
[3] = biological target: βAPP-C100 binding site on NGF-treated PC12 cells; test: inhibition of 35S-βAPP-C100 binding to NGF-treated PC12 cells by unlabeled βAPP-C100

Row | IC50 [1] | times less potent than the native form [1] | Kd [2] | IC50 [3] | Substance
1 | > 14 nM | > 20 times |  |  | Phe687-βAPP-C100 (from UniProt P05067-4) (ligand)
2 |  |  | 0.81 nM | 1.7 nM | flag-βAPP-C100 (from UniProt P05067-4) (ligand)
